Tests used:
[1] = tested on: HeLa Kyoto; assay: solubility change mitosis vs G1/S (difference of NP-40 vs SDS log2 ratios) (log2 ratio difference); higher = more soluble in mitosis
[2] = tested on: HeLa Kyoto; assay: solubility in G1/S (NP-40 vs SDS abundance) (log2 ratio); higher = more soluble; conditions: cell cycle stage: G1/S
[3] = tested on: HeLa Kyoto; assay: melting temperature (median over replicates), in situ; higher = more thermally stable
[4] = tested on: HeLa Kyoto; assay: thermal stability score vs G1/S (z-score of summed log2 fold changes over temperatures); higher = more thermally stable than in G1/S
[5] = cell cycle stage: early G1 (4.5 h after nocodazole release)
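For melting temperature (median over replicates), in situ in this document: HeLa Kyoto cells synchronized by double thymidine or nocodazole block, proteins quantified by TMT10plex mass spectrometry, three independent biological replicates.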
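For solubility change mitosis vs G1/S (difference of NP-40 vs SDS log2 ratios) in this document: synchronized HeLa Kyoto cells (double thymidine block for G1/S, nocodazole release for mitosis), protein amounts in NP-40 versus SDS lysates quantified by mass spectrometry, three biological replicates.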
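For solubility in G1/S (NP-40 vs SDS abundance) in this document: HeLa Kyoto cells arrested at G1/S by double thymidine block, proteins quantified by TMT10plex mass spectrometry in mild NP-40 versus SDS extracts, three biological replicates.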
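For thermal stability score vs G1/S (z-score of summed log2 fold changes over temperatures) in this document: synchronized HeLa Kyoto cells, proteins quantified by TMT10plex mass spectrometry, three biological replicates, mitosis taken 0.5 h after nocodazole release, G1/S directly after double thymidine block.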

## MEFDLGAALEPTSQKPGVGAGHGGDPKLSPHKVQGRSEAGAGPGPKQGHHSSSDSSSSSSDSDTDVKSHAAGSKQHESIPGKAKKPKVKKKEKGKKEKGKKKEAPH [IMUP]
[1]
  solubility change mitosis (log2): 0.311
[2]
  solubility in G1/S (log2): 1.09
[3]; cell cycle stage: G1/S
  melting temperature: 59.3 °C
[4]; [5]
  thermal stability score: 1.02
[4]; cell cycle stage: mitosis
  thermal stability score: -1.94

## MSGAEEAGGGGPAAGPAGSVPAGVGVGVGAGPGAAAGQAAAAALGEAAGPGLPDEAGLAGARQLQLQEAAGDPDAPPKKRLRAAEAAEAAAAAAAAGSGKLEERLYSVLCCTVCLDLPKASVYQCTNGHLMCAGCFIHLLADARLKEEQATCPNCRCEISKSLCCRNLAVEKAVSELPSECGFCLRQFPRSLLERHQKEECQDRVTQCKYKRIGCPWHGPFHELTVHEAACAHPTKTGSELMEILDGMDQSHRKEMQLYNSIFSLLSFEKIGYTEVQFRPYRTDDFITRLYYETPRFTVLNQTWVLKARVNDSERNPNLSCKRTLSFQLLLKSKVTAPLECSFLLLKGPYDDVRISPVIYHFVFTNESNETDYVPLPIIDSVECNKLLAAKNINLRLFLFQIQK [CYHR1]
[1]
  solubility change mitosis (log2): -0.0838
[2]
  solubility in G1/S (log2): 0.166
[3]; cell cycle stage: G1/S
  melting temperature: 54 °C
[3]; cell cycle stage: mitosis
  melting temperature: 55 °C
[4]; [5]
  thermal stability score: -1.75
[4]; cell cycle stage: mitosis
  thermal stability score: -2.18

## MGKSDFLTPKAIANRIKSKGLQKLRWYCQMCQKQCRDENGFKCHCMSESHQRQLLLASENPQQFMDYFSEEFRNDFLELLRRRFGTKRVHNNIVYNEYISHREHIHMNATQWETLTDFTKWLGREGLCKVDETPKGWYIQYIDRDPETIRRQLELEKKKKQDLDDEEKTAKFIEEQVRRGLEGKEQEVPTFTELSRENDEEKVTFNLSKGACSSSGATSSKSSTLGPSALKTIGSSASVKRKESSQSSTQSKEKKKKKSALDEIMEIEEEKKRTARTDYWLQPEIIVKIITKKLGEKYHKKKAIVKEVIDKYTAVVKMIDSGDKLKLDQTHLETVIPAPGKRILVLNGGYRGNEGTLESINEKTFSATIVIETGPLKGRRVEGIQYEDISKLA [KIN]
[1]
  solubility change mitosis (log2): 0.174
[2]
  solubility in G1/S (log2): -0.339
[3]; cell cycle stage: G1/S
  melting temperature: 51.1 °C
[3]; cell cycle stage: mitosis
  melting temperature: 49.3 °C
[4]; [5]
  thermal stability score: 0.727
[4]; cell cycle stage: mitosis
  thermal stability score: 1.45

## MEADIITNLRCRLKEAEEERLKAAQYGLQLVESQNELQNQLDKCRNEMMTMTESYEQEKYTLQREVELKSRMLESLSCECEAIKQQQKMHLEKLEEQLSRSHGQEVNELKTKIEKLKVELDEARLSEKQLKHQVDHQKELLSCKSEELRVMSERVQESMSSEMLALQIELTEMESMKTTLKEEVNELQYRQEQLELLITNLMRQVDRLKEEKEEREKEAVSYYNALEKARVANQDLQVQLDQALQQALDPNSKGNSLFAEVEDRRAAMERQLISMKVKYQSLKKQNVFNREQMQRMKLQIATLLQMKGSQTEFEQQERLLAMLEQKNGEIKHLLGEIRNLEKFKNLYDSMESKPSVDSGTLEDNTYYTDLLQMKLDNLNKEIESTKGELSIQRMKALFESQRALDIERKLFANERCLQLSESENMKLRAKLDELKLKYEPEETVEVPVLKKRREVLPVDITTAKDACVNNSALGGEVYRLPPQKEETQSCPNSLEDNNLQLEKSVSIYTPVVSLSPHKNLPVDMQLKKEKKCVKLIGVPADAEALSERSGNTPNSPRLAAESKLQTEVKEGKETSSKLEKETCKKLHPILYVSSKSTPETQCPQQ [SPDL1]
[1]
  solubility change mitosis (log2): 0.278
[2]
  solubility in G1/S (log2): 0.268
[3]; cell cycle stage: G1/S
  melting temperature: 47.2 °C
[3]; cell cycle stage: mitosis
  melting temperature: 50.1 °C
[4]; [5]
  thermal stability score: 0.59
[4]; cell cycle stage: mitosis
  thermal stability score: 0.359

## METLESELTCPICLELFEDPLLLPCAHSLCFNCAHRILVSHCATNESVESITAFQCPTCRHVITLSQRGLDGLKRNVTLQNIIDRFQKASVSGPNSPSETRRERAFDANTMTSAEKVLCQFCDQDPAQDAVKTCVTCEVSYCDECLKATHPNKKPFTGHRLIEPIPDSHIRGLMCLEHEDEKVNMYCVTDDQLICALCKLVGRHRDHQVAALSERYDKLKQNLESNLTNLIKRNTELETLLAKLIQTCQHVEVNASRQEAKLTEECDLLIEIIQQRRQIIGTKIKEGKVMRLRKLAQQIANCKQCIERSASLISQAEHSLKENDHARFLQTAKNITERVSMATASSQVLIPEINLNDTFDTFALDFSREKKLLECLDYLTAPNPPTIREELCTASYDTITVHWTSDDEFSVVSYELQYTIFTGQANVVSLCNSADSWMIVPNIKQNHYTVHGLQSGTKYIFMVKAINQAGSRSSEPGKLKTNSQPFKLDPKSAHRKLKVSHDNLTVERDESSSKKSHTPERFTSQGSYGVAGNVFIDSGRHYWEVVISGSTWYAIGLAYKSAPKHEWIGKNSASWALCRCNNNWVVRHNSKEIPIEPAPHLRRVGILLDYDNGSIAFYDALNSIHLYTFDVAFAQPVCPTFTVWNKCLTIITGLPIPDHLDCTEQLP [MID1]
[1]
  solubility change mitosis (log2): -0.0991
[2]
  solubility in G1/S (log2): -0.197
[3]; cell cycle stage: G1/S
  melting temperature: 50.6 °C
[3]; cell cycle stage: mitosis
  melting temperature: 50.6 °C
[4]; [5]
  thermal stability score: -0.257
[4]; cell cycle stage: mitosis
  thermal stability score: -0.0362

## MSQSKGKKRNPGLKIPKEAFEQPQTSSTPPRDLDSKACISIGNQNFEVKADDLEPIMELGRGAYGVVEKMRHVPSGQIMAVKRIRATVNSQEQKRLLMDLDISMRTVDCPFTVTFYGALFREGDVWICMELMDTSLDKFYKQVIDKGQTIPEDILGKIAVSIVKALEHLHSKLSVIHRDVKPSNVLINALGQVKMCDFGISGYLVDSVAKTIDAGCKPYMAPERINPELNQKGYSVKSDIWSLGITMIELAILRFPYDSWGTPFQQLKQVVEEPSPQLPADKFSAEFVDFTSQCLKKNSKERPTYPELMQHPFFTLHESKGTDVASFVKLILGD [MAP2K6]
[1]
  solubility change mitosis (log2): -0.158
[2]
  solubility in G1/S (log2): 0.225
[3]; cell cycle stage: G1/S
  melting temperature: 51.4 °C
[3]; cell cycle stage: mitosis
  melting temperature: 52.5 °C
[4]; [5]
  thermal stability score: 1.49
[4]; cell cycle stage: mitosis
  thermal stability score: 0.537

## PPIF
[1]
  solubility change mitosis (log2): 0.14
[2]
  solubility in G1/S (log2): 0.731
[3]; cell cycle stage: G1/S
  melting temperature: 52.2 °C
[3]; cell cycle stage: mitosis
  melting temperature: 52.1 °C
[4]; [5]
  thermal stability score: 0.427
[4]; cell cycle stage: mitosis
  thermal stability score: -1.83

— the supplement of paper PMC5998384
